Here are results for 2 molecules from patent publication US20050084493A1 (Amgen, published 2005).

The target of assay [1] is IL-1 receptor type I (IL-1R1) on SW982 synoviocytes / HUVEC (human) (UniProt P14778). Nature of the assay: cell-based or functional assay.
For assay [2], the target named is T1, IL-1β (Homo sapiens (Human), UniProt P01584 117-269).
T1 construct: also called IL-1 beta; IL-1b
Nature of the assay: ECL (Origen) competition of complex formation: antibody titrated against biotinylated sIL-1 receptor (1 nM), IL-1β (1 nM), ruthenium-tagged IL-1RacP (5 nM).
Experimental: The resulting complexes were captured using magnetic streptavidin-coated beads and an Origen® Analyzer (IGEN Inc.) measured an ECL signal proportional to the ruthenium tag captured in the complex to evaluate competition of complex formation.
After a 1-hour incubation, the resulting complexes were captured using magnetic streptavidin-coated beads. Competition of complex formation was evaluated using an Origen® Analyzer (IGEN Inc.), which measures an ECL signal proportional to the ruthenium tag captured in the complex.

In assay [3] the target is T1, IL-1β. Nature of the assay: cell-based or functional assay.

Chain of IL-1 receptor type I (IL-1R1) on SW982 synoviocytes / HUVEC (human) (P14778 18-569): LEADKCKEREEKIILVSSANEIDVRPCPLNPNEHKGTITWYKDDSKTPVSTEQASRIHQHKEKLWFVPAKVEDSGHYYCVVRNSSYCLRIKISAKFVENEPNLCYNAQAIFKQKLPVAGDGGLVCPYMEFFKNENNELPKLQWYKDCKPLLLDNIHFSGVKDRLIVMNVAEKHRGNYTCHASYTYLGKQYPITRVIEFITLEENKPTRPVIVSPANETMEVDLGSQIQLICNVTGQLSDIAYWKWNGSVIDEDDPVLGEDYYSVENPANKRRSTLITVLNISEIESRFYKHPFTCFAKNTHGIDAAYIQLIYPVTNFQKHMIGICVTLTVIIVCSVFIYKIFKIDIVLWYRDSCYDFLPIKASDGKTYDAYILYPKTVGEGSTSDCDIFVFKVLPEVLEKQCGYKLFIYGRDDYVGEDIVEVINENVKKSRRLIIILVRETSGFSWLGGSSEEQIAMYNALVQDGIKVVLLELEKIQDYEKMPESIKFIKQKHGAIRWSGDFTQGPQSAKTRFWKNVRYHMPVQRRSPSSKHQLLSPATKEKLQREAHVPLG

In assay [1], “IL-1ra (from UniProt P18510 26-177) (ligand)” showed an IC50 (pM), IL-1β-dependent GROα production in HUVEC of 2930 pM.

B1: MAB201 murine monoclonal anti-IL-1β antibody (R&D Systems) (antibody, V domains shown)
VH: QVTLKESGPGILKPSQTLSLTCSFSGFSLSTSGMGVGWIRQPSGKGLEWLAHIWWDGDESYNPSLKTRLTISKNTSRNQVFLKITTVDTVDTATYFCARNRYDPPWFVDWGQGTLVTVSS
VL: DIQMTQTTSSLSASLGDRVTISCRASQDISNYLSWYQQKPDGTVKLLIYYTSKLHSGVPSRFSGSGSGTDYFLTISNLEQEDIATYFCLQGKMLPWTFGGGTKLEIK
notes: Commercial murine monoclonal; light chain is kappa; also called Mouse; mouse monoclonal MAB201
Take B1: in the assay with IL-1β [2], the IC50 was found to be 0.476 nM. In the assay with IL-1β [3], the “IC50 (pM), IL-1β-dependent GROα production in HUVEC” value was 171 pM.
